Reference: US9598497B2, “RSPO3 binding agents and uses thereof” (OncoMed Pharmaceuticals, Inc., priority 2012, dated 2017)

Experiments:
[1] = test system: gene sets characteristic of normal stem cells or cancer stem cells; assay: Microarray gene set enrichment analysis of treated OMP-LU102 tumors; format: in vivo, NOD-SCID mice; settings: RNA from OMP-LU102 tumors after treatment, FIG. 11B
Experimental: RNA was prepared from tumors from each of the four experimental groups following the treatment. Gene expression was characterized by microarray analysis.

[2] = target: T1, human LGR5 (Homo sapiens, UniProt O75473); assay: FACS binding of RSPO-Fc fusion proteins to LGR5 expressed on HEK-293 cells; settings: 10 μg/ml Fc fusion protein, FIG. 2
T1 construct: ligating amino acids 22-564 of human LGR5 to an N-terminal FLAG tag; expressed in transfected cells; host or cells: HEK-293
T1 sequence (O75473 22-564): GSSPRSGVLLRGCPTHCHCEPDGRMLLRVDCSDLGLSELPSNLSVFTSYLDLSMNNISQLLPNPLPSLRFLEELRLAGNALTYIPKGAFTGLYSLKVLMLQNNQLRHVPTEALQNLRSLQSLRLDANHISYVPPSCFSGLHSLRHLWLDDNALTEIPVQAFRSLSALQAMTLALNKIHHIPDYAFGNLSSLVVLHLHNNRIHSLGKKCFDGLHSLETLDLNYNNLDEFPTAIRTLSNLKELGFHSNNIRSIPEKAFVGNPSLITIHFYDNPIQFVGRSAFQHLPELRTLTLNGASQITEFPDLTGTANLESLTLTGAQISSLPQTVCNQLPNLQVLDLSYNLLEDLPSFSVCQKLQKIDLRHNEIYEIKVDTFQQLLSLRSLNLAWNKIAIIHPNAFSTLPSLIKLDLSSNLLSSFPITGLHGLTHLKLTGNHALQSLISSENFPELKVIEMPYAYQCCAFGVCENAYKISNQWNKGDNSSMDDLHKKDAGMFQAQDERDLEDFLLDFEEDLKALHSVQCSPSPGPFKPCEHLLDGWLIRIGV
Description: A cell surface LGR5 protein was generated by ligating amino acids 22-564 of human LGR5 to an N-terminal FLAG tag and to the transmembrane domain of CD4 and a C-terminal GFP protein tag using standard recombinant DNA techniques (FLAG-LGR5-CD4TM-GFP). RSPO-Fc constructs were generated using standard recombinant DNA techniques. Specifically, full-length human RSPO1, RSPO2, RSPO3 and RSPO4 were ligated in-frame to a human Fc region and the recombinant RSPO-Fc proteins were expressed in insect cells using baculovirus. The fusion proteins were purified from the insect medium using protein A chromatography.
HEK-293 cells were transiently transfected with the FLAG-LGR5-CD4TM-GFP construct. After 48 hours, transfected cells were suspended in ice cold PBS containing 2% FBS and heparin and incubated on ice in the presence of 10 μg/ml RSPO1-Fc, RSPO2-Fc, RSPO3-Fc, RSPO4-Fc, or FZD8-Fc fusion proteins for 15 minutes. A second incubation with 100 μl PE-conjugated anti-human Fc secondary antibody was performed to detect cells bound by the Fc fusion proteins. Cells were incubated with an anti-FLAG antibody (Sigma-Aldrich, St. Louis, Mo.) as a positive control and with an anti-PE antibody as a negative control. The cells were analyzed on a FACSCalibur instrument (BD Biosciences, San Jose, Calif.) and the data was processed using FlowJo software.

[3] = test system: RSPO3-induced β-catenin signaling; assay: TOPflash 6xTCF-luciferase reporter assay in HEK-293 cells with WNT3a and RSPO3; format: cell-based, human
Experimental: HEK-293 cells were transfected with a 6×TCF-luciferase reporter vector (TOPflash, Millipore, Billerica, Mass.). After 24-48 hrs, the transfected HEK-293 cells were incubated with a combination of WNT3a (5 ng/ml) and human RSPO3 (10 ng/ml, R&D BioSystems, Minneapolis, Minn.) in the presence of anti-RSPO3 antibodies 131R002 and 131R003. Antibodies 131R002 and 131R003 were added to the cells in 4-fold serial dilutions from 20 μg/ml to 0.02 μg/ml. As controls, cells were incubated with a combination of WNT3a and RSPO3, WNT3a only, RSPO3 only, or with no addition. The cells were incubated for 16 hours and luciferase activity was measured using Steady-Glo® Luciferase Assay System according to the manufacturer's instructions (Promega, Madison, Wis.).
HEK-293 cells were transfected with a 6×TCF-luciferase reporter vector (TOPflash, Millipore, Billerica, Mass.). After 24-48 hrs, the transfected HEK-293 cells were incubated with a combination of WNT3a and human RSPO3 in the presence of anti-RSPO3 antibodies 131R003, 131R003 CDR1 variant and 131R003 CDR3 variant. 131R003, 131R003 CDR1 variant, and 131R003 CDR3 variant were added to the cells in 5-fold serial dilutions from 20 μg/ml to 0.006 μg/ml. As controls, cells were incubated with a combination of WNT3a and RSPO3, WNT3a only, RSPO3 only, a control antibody, or with no addition. The cells were incubated for 16 hours and luciferase activity was measured using Steady-Glo® Luciferase Assay System according to the manufacturer's instructions (Promega, Madison, Wis.).
HEK-293 cells were transfected with a 6×TCF-luciferase reporter vector (TOPflash, Millipore, Billerica, Mass.). After 24-48 hrs, the transfected HEK-293 cells were incubated with a combination of WNT3a conditioned medium (5 ng/ml) and human RSPO3 (10 ng/ml, R&D BioSystems) in the presence of anti-RSPO3 antibodies 131R002, 131R006B, or 131R007. Antibodies 131R002, 131R006 or 131R007 were added to the cells in 5-fold serial dilutions from 20 μg/ml to 0.0064 μg/ml. As controls, cells were incubated with WNT3a conditioned medium alone, a combination of WNT3a conditioned medium and human RSPO3, or with no addition to cells. The cells were incubated for 16 hours and luciferase activity was measured using Steady-Glo® Luciferase Assay System according to the manufacturer's instructions (Promega, Madison, Wis.).
HEK-293 cells were transfected with a 6×TCF-luciferase reporter vector (TOPflash, Millipore, Billerica, Mass.). […] The cells were incubated for 16 hours and luciferase activity was measured using Steady-Glo® Luciferase Assay System according to the manufacturer's instructions (Promega, Madison, Wis.).

| binding to LGR5 expressed on the surface of HEK-293 cells [2] | Molecule | further results |
| --- | --- | --- |
| – | N.N.O=C([O-])C1(C(=O)[O-])CCC1.[Pt+2] [carboplatin, reference compound] | expression of gene sets characteristic of normal stem cells or cancer stem cells [1]: did not have this effect on gene expression |
| bound to LGR5 | RSPO2: full-length human RSPO2 ligated in-frame to a human Fc region (protein, left off: a dimerising Fc or GST, full-length human RSPO2 ligated in-frame to a human Fc region) QGNRWRRSKRASYVSNPICKGCLSCSKDNGCSRCQQKLFFFLRREGMRQYGECLHSCPSGYYGHRAPDMNRCARCRIENCDSCFSKDFCTKCKVGFYLHRGRCFDECPDGFAPLEETMECVEGCEVGHWSEWGTCSRNNRTCGFKWGLETRTRQIVKKPVKDTIPCPTIAESRRCKMTMRHCPGGKRTPKAKEKRNKKKKRKLIERAQEQHSVFLATDRANQ | – |
| bound to LGR5 | RSPO3: full-length human RSPO3 ligated in-frame to a human Fc region (protein) QNASRGRRQRRMHPNVSQGCQGGCATCSDYNGCLSCKPRLFFALERIGMKQIGVCLSSCPSGYYGTRYPDINKCTKCKADCDTCFNKNFCTKCKSGFYLHLGKCLDNCPEGLEANNHTMECVSIVHCEVSEWNPWSPCTKKGKTCGFKRGTETRVREIIQHPSAKGNLCPPTNETRKCTVQRKKCQKGERGKKGRERKRKKPNKGESKEAIPDSKSLESSKEIPEQRENKQQQKKRKVQDKQKSVSVSTVH | – |
| – | h131R010: humanized 131R003 variant, IgG1; heavy chain variable region SEQ ID NO:44, light chain variable region SEQ ID NO:86; ATCC PTA-120420 and PTA-120421 (antibody, V domains shown, Humanized 131R005/131R007/131R008/ 131R010/131R011 Heavy chain variable region; Humanized 131R010/131R011 Light chain variable region, humanized 131R003 variant, IgG1; ATCC PTA-120420 and PTA-120421) VH: QVQLVQSGAEVKKPGASVKVSCKASGYTFTDYSIHWVRQAPGQGLEWIGYIYPSNGDSGYNQKFKNRVTMTRDTSTSTAYMELSRLRSEDTAVYYCATYFANNFDYWGQGTTLTVSS VL: DIQMTQSPSSLSASVGDRVTITCKASQSVDYDGDSYMNWYQQKPGKAPKLLIYAASNLESGVPSRFSGSGSGTDFTLTISPVQAEDFATYYCQQSNEDPLTFGAGTKLELKR | WNT3a/RSPO3-induced β-catenin signaling ([3]; WNT3a conditioned medium 5 ng/ml + human RSPO3 2 ng/ml, antibody 20 to 0.0064 μg/ml, FIG. 13): reduced WNT3a/RSPO3-induced β-catenin signaling in a dose-dependent manner and to a similar extent as h131R007 |
| bound to LGR5 | RSPO1: full-length human RSPO1 ligated in-frame to a human Fc region (protein, left off: a dimerising Fc or GST, full-length human RSPO1 ligated in-frame to a human Fc region) SRGIKGKRQRRISAEGSQACAKGCELCSEVNGCLKCSPKLFILLERNDIRQVGVCLPSCPPGYFDARNPDMNKCIKCKIEHCEACFSHNFCTKCKEGLYLHKGRCYPACPEGSSAANGTMECSSPAQCEMSEWSPWGPCSKKQQLCGFRRGSEERTRRVLHAPVGDHAACSDTKETRRCTVRRVPCPEGQKRRKGGQGRRENANRNLARKESKEAGAGSRRRKGQQQQQQQGTVGPLTSAGPA | – |
| – | 131R003: anti-RSPO3 antibody from a mammalian cell antibody library; heavy chain variable region SEQ ID NO:16, light chain variable region SEQ ID NO:17 (antibody, V domains shown, 131R003 Heavy chain variable region; 131R002/131R003 Light chain variable region) VH: QVQLKQSGPELVKPGASVKISCKASGYTFTDYSIHWVKQNHGKSLDWIGYIYPSNGDSGYNQKFKNRATLTVDTSYSTAYLEVRRLTFEDSAVYYCATYFANYFDYWGQGTTLTVSSAST VL: DIVLTQSPASLAVSLGQRATISCKASQSVDYDGDSYMNWYQQKPGQPPKLLIYAASNLESGIPARFSGSGSGTDFTLNIHPVEEEDAATYYCQQSNEDPLTFGAGTKLELKR | RSPO3-induced β-catenin signaling ([3]; WNT3a 5 ng/ml + RSPO3 10 ng/ml, antibody 20 to 0.02 μg/ml, FIG. 3): reduced RSPO3-induced β-catenin signaling in a dose-dependent manner |
